Source: patent US20210340238A1, “TGFß1 INHIBITORS AND USE THEREOF” (Scholar Rock, Inc., priority 2018, published 2021)

Assays:
[1] = molecular target: Matrix-associated proTGFβ1; test: Octet binding, ECM average of hLTBP1 and hLTBP3 complexes; design: species or system human; details: average KD of (B) and (C), read-out: (D) ECM AVRG
Text: Column (A) of the table provides monoclonal antibodies with discrete amino acid sequences. […] Columns (B), (C), (E) and (F) provide affinities of each of the listed antibodies, measured in KD, towards the antigen complex as indicated, respectively. […] Average KD values calculated from (B) and (C) are shown in the corresponding column (D), which collectively represents affinities of the antibodies to ECM- or matrix-associated proTGFβ1 complexes. Similarly, Average KD values calculated from (E) and (F) are shown in the corresponding column (G), which collectively represents affinities of the antibodies to cell-surface or cell-associated proTGF complexes. Finally, relative ratios between the average KD values from columns (D) and (G) are expressed as fold bias” in column (H). Thus, the greater the numerical of column (H) is, the greater bias exists for the particular antibody, when comparing binding preferences of the antibody for matrix-associated complexes to cell-surface complexes. This is one way of quantitatively representing and comparing inherent bias of antibodies to their target complexes. Such analyses may be useful in guiding the selection process for a candidate antibody for particular therapeutic use.

[2] = molecular target: Matrix-associated proTGFβ1; test: MSD-SET binding, ECM average of hLTBP1 and hLTBP3 complexes; design: species or system human; details: average KD of (B) and (C), read-out: (D) ECM AVRG
Text: (§1) Column (A) of the table provides monoclonal antibodies with discrete amino acid sequences. […] Columns (B), (C), (E) and (F) provide affinities of each of the listed antibodies, measured in KD, towards the antigen complex as indicated, respectively. […] Similarly, Average KD values calculated from (E) and (F) are shown in the corresponding column (G), which collectively represents affinities of the antibodies to cell-surface or cell-associated proTGF complexes. Finally, relative ratios between the average KD values from columns (D) and (G) are expressed as fold bias” in column (H). Thus, the greater the numerical of column (H) is, the greater bias exists for the particular antibody, when comparing binding preferences of the antibody for matrix-associated complexes to cell-surface complexes. This is one way of quantitatively representing and comparing inherent bias of antibodies to their target complexes. Such analyses may be useful in guiding the selection process for a candidate antibody for particular therapeutic use. Select antibodies of the present disclosure, as measured by MSD-SET, show context-bias (i.e., greater than five-fold bias) or unbias (i.e., less than 5-fold bias) toward matrix-associated complexes over cell-associated complexes. […] Without being bound by a particular theory, the differences in the kinetics of the assays and/or differences in the nature of recombinant proteins may account for the noticeable differences seen in Ab19 binding to hGARP complexes observed in the above Octet assay (see Table 6) compared to the below MSD-SET assay (see Table 7 below). For example, the Octet assay measures kinetic on and off rates, while the MSD-SET assay measures binding at equilibrium. In addition, the recombinant antibodies used in the Octet assay were expressed as IgG1 antibodies in yeast, while the antibodies used in the MSD assay were expressed as IgG4 antibodies in mammalian cells.

[3] = tested on: Cell-associated proTGFβ1; test: MSD-SET binding, cell average of hGARP and hLRRC33 complexes; design: species or system human; details: average KD of (E) and (F), read-out: (G) Cell AVRG
Text: as §1

[4] = tested on: MBT2 tumors; test: MBT2 syngeneic bladder cancer mouse model, combination with anti-PD-1; assay type: in vivo; details: Ab3 10 and 30 mg/kg, Ab2 3 and 10 mg/kg, in combination with anti-PD-1
Text: This is a very aggressive and fast-growing tumor model, and is very difficult to overcome tumor progression with drug treatment.
Treatment with isotype control was used as a control group (data not shown).
Percent tumor growth delay (% TGD) is defined as the increase in the median time to endpoint in a treatment group compared to the untreated control, expressed as a percentage of the median time to endpoint (TTE) of the control:
T=median TTE for treatment

[5] = molecular target: proTGFβ1 C4S (Homo sapiens, UniProt P01137, C33S); test: Octet Red384 pH-sensitivity of binding (dissociation at pH 7 and pH 5); details: dissociation at pH 7 vs pH 5
Chain of proTGFβ1 C4S (P01137 30-390 C33S): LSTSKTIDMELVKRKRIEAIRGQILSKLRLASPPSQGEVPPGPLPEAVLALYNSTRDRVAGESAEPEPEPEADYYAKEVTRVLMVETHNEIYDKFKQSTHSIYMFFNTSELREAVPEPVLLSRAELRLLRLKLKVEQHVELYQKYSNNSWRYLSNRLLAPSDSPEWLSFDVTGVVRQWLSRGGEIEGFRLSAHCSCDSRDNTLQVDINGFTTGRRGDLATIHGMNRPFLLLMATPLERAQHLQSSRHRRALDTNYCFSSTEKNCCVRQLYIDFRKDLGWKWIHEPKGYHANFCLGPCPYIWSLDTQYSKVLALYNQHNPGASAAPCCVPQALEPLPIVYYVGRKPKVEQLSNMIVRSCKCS
Procedure: The antibodies were tested against sensor-immobilized human proTGFβ1 C4S, which contains a mutation in the prodomain to facilitate proTGFβ1 expression without disulfide linkage to a presentation molecule.
Then, the tips were moved into an activation solution for 5 minutes. […] The activation solution is prepared immediately before use in the experiment. After tip activation, the tips were loaded for 3 minutes with a 10 ug/mL solution of human proTGFβ1 C4S in 10 mM sodium acetate buffer pH 5. After loading, the tips were quenched in ethanolamine pH 8.5 for 15 minutes. The tips were then baseline/blocked with a 20 minute incubation in 1× enhanced kinetics buffer. 1× enhanced kinetics buffer (1×EKB) is 1× kinetics buffer (ForteBio part no 18-1105 diluted from 10× with PBS) with the addition of 2% BSA (Sigma A3059-100G), 0.5 M NaCl (FisherS671-10), and 0.09% tween-20 (P7949-500M). […] The dissociation was performed in 1×KB at pH 7 and pH 5.

B1: Ab2: isoform-selective inhibitor of TGFβ1 activation; VH SEQ ID NO: 13, VL SEQ ID NO: 15; human IgG4 (antibody, V domains shown)
VH: EVQLLESGGGLVQPGGSLRLSCAASGFTFADYAMTWVRQAPGKGLEWVSAISGSGAATYFADSVKGRFTISRDNSKNTLYLQMNSLRAEDTAVYYCARVSSGHWDFDYWGQGTLVTVSS
VL: DIQLTQSPSSLSASVGDRVTITCRASQSISSYLNWYQQKPGKAPKLLIYAASNLQSGVPSRFSGSGSGTDFTLTISSLQPEDFATYYCQQTYTVPLTFGGGTKVEIK
modifications: human IgG4 constant regions
With B1 the Kd [1] was 0.157 nM, the Kd [2] was 0.266 nM and the Kd [3] was 2.3 nM. For the same molecule, the “Tumor growth compared to PD-1 alone” value [4] was “delayed tumor growth” and the “pH sensitivity of binding” value [5] was “Ab2 is pH-sensitive”.
